Source: patent US20070048268A1

Molecular target: human IL-21 receptor (human) (UniProt Q9HBE5)
Test: cell-based or functional assay

In the case of “human IL-21-saporin immunotoxin conjugate (from UniProt P20656 25-277)”, the 3H-thymidine incorporation of MOLT-13 cells, relative to IL-21 treated cells is reported as 70%, the growth inhibition of IM-9 cells, Alamar Blue proliferation assay, maximal conjugate concentration (250 ng/ml) is reported as 79% and the growth inhibition of RAMOS cells, Alamar Blue proliferation assay, maximal conjugate concentration (250 ng/ml) is reported as 65%. It also gave a growth of DEL cells, density relative to untreated cells of 25%, a growth of HuT-78 cells, density relative to untreated cells of 33% and a growth of HuT-102 cells, density relative to untreated cells of 20%. For the same substance, the growth of YT cells, density relative to untreated cells was 33%.
